Consider seven molecules from patent US20230060095A1 (Regeneron, published 2023).

For one experiment, the target named is T1, peptide on HLA-A*02:01 (human).
T1 peptide: SLLMWITQC
The experiment is described as follows: activation reporter or marker.

Experiment [1] deals with T2, soluble HLA:A2:PRAME (425-433) tetramer (human).
T2 construct: Commercial tetramer (MBL International); construct limits, biotin tag and streptavidin/fluorophore not described; also called PRAME/HLA tetramer reagent; PRAME (425-433)/HLA-A2
In words: flow cytometry, soluble pMHC tetramer on CHO cells expressing the TCR.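 Note: CHO cells transfected with vectors encoding full-length paired TCR alpha and beta chains, stained with PRAME/HLA tetramer and read by flow cytometry, each value reflects one listed TCR.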 For orientation: In flow cytometry, cells or beads pass a laser one at a time.

The target in experiment [2] is T3, PRAME peptide on HLA-A*02:01 (human).
T3 peptide: SLLQHLIGL
In words: multimer staining.

B1: PN42610 (TCR, V domains shown)
V domain 1: QKEVEQNSGPLSVPEGAIASLNCTYSDRGSQSFFWYRQYSGKSPELIMSIYSNGDKEDGRFTAQLNKASQYVSLLIRDSQPSDSATYLCAGNYGQNFVFGPGTRLSVLP
V domain 2: AAGVIQSPRHLIKEKRETATLKCYPIPRHDTVYWYQQGPGQDPQFLISFYEKMQSDKGSIPDRFSAQQFSDYHSELNMSSLELGDSALYFCASSIGLNQPQHFGDGTRLSIL
Take B1: the binding result with peptide on HLA-A*02:01 is “no recognition”. The “Cell Frequency ≥1000 MFI, ≥1% (% tetramer positive cells in the Ag+ gate)” value in experiment [1] came to 6.08%.

B2: PN42654 (TCR, V domains shown)
V domain 1: DAKTTQPNSMESNEEEPVHLPCNHSTISGTDYIHWYRQLPSQGPEYVIHGLTSNVNNRMASLAIAEDRKSSTLILHRATLRDAAVYYCILRDGIGNQFYFGTGTSLTVIP
V domain 2: EAQVTQNPRYLITVTGKKLTVTCSQNMNHEYMSWYRQDPGLGLRQIYYSMNVEVTDKGDVPEGYKVSRKEKRNFPLILESPSPNQTSLYFCASSLWTGGGYTFGSGTRLTVV
Turning to B2, the binding result with peptide on HLA-A*02:01 is listed as “no recognition”. The “Cell Frequency ≥1000 MFI, ≥1% (% tetramer positive cells in the Ag+ gate)” value in experiment [1] was 20.1%.

B3: PN42683 (TCR, V domains shown)
V domain 1: DAKTTQPNSMESNEEEPVHLPCNHSTISGTDYIHWYRQLPSQGPEYVIHGLTSNVNNRMASLAIAEDRKSSTLILHRATLRDAAVYYCILRDREYGNKLVFGAGTILRVKS
V domain 2: EAQVTQNPRYLITVTGKKLTVTCSQNMNHEYMSWYRQDPGLGLRQIYYSMNVEVTDKGDVPEGYKVSRKEKRNFPLILESPSPNQTSLYFCASSLWTGGGYTFGSGTRLTVV
Consider B3, for which the binding result with peptide on HLA-A*02:01 is “no recognition”. Besides, the “Cell Frequency ≥1000 MFI, ≥1% (% tetramer positive cells in the Ag+ gate)” value in experiment [1] is 11.1%.

B4: PN42677 (TCR, V domains shown)
V domain 1: DAKTTQPNSMESNEEEPVHLPCNHSTISGTDYIHWYRQLPSQGPEYVIHGLTSNVNNRMASLAIAEDRKSSTLILHRATLRDAAVYYCILRDGTGNQFYFGTGTSLTVIP
V domain 2: EAQVTQNPRYLITVTGKKLTVTCSQNMNHEYMSWYRQDPGLGLRQIYYSMNVEVTDKGDVPEGYKVSRKEKRNFPLILESPSPNQTSLYFCASSSTGYYGYTFGSGTRLTVV
As for B4, the binding result with peptide on HLA-A*02:01 is “no recognition”. Also, in experiment [1], the “Cell Frequency ≥1000 MFI, ≥1% (% tetramer positive cells in the Ag+ gate)” value is 25.3%.

B5: PN42879 (TCR, V domains shown)
V domain 1: TQLLEQSPQFLSIQEGENLTVYCNSSSVFSSLQWYRQEPGEGPVLLVTVVTGGEVKKLKRLTFQFGDARKDSSLHITAAQPGDTGLYLCAGEDFGNEKLTFGTGTRLTIIP
V domain 2: DAGVTQSPTHLIKTRGQQVTLRCSPKSGHDTVSWYQQALGQGPQFIFQYYEEEERQRGNFPDRFSGHQFPNYSSELNVNALLLGDSALYLCASSWADYGYTFGSGTRLTVV
B5: in the experiment with peptide on HLA-A*02:01, the binding result is recorded as “no recognition”. In addition, the “Cell Frequency ≥1000 MFI, ≥1% (% tetramer positive cells in the Ag+ gate)” value in experiment [1] is 93.1%.

B6: PN42378 (TCR, V domains shown)
V domain 1: DAKTTQPNSMESNEEEPVHLPCNHSTISGTDYIHWYRQLPSQGPEYVIHGLTSNVNNRMASLAIAEDRKSSTLILHRSTLRDAAVYYCILRPDSWGKFQFGAGTQVVVTP
V domain 2: DAGVTQSPTHLIKTRGQQVTLRCSPKSGHDTVSWYQQALGQGPQFIFQYYEEEERQRGNFPDRFSGHQFPNYSSELNVNALLLGDSALYLCASSLQDYGYTFGSGTRLTVV
notes: stained with anti-mouse TCR constant region antibody H57-597) and full-length chains were expressed on CHO cells
Turning to B6, the binding result in experiment [2] was “recognises”. In experiment [1], the “Cell Frequency ≥1000 MFI, ≥1% (% tetramer positive cells in the Ag+ gate)” value came out at 77.5%.

B7: PN42483 (TCR, V domains shown)
V domain 1: TQLLEQSPQFLSIQEGENLTVYCNSSSVFSSLQWYRQEPGEGPVLLVTVVTGGEVKKLKRLTFQFGDARKDSSLHITAAQPGDTGLYLCAGDGGSQGNLIFGKGTKLSVKP
V domain 2: EAQVTQSPRYLITVTGKKLTVTCSQNMNHEYMSWYRQDPGLGLRQIYYSMNVEVTDKGDVPEGYKVSRKEKRNFPLILESPSPNQTSLYFCASSLGGADEKLFFGSGTQLSVL
Regarding B7, the binding result with peptide on HLA-A*02:01 is given as “no recognition”. Besides, the “Cell Frequency ≥1000 MFI, ≥1% (% tetramer positive cells in the Ag+ gate)” value in experiment [1] is 86.4%.
